Assay results: the supplement of paper PMC9876800

Tested on: peptide library, one residue held at a place counted from the S/T acceptor
Experiment: relative phosphorylation of the sub-library (ratio to the mean residue at this position); higher = residue favoured
Conditions: human
In short: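 Relative sub-library phosphorylation is a ratio to the mean residue at the same position. Purified recombinant kinases were incubated under kinase-specific conditions with biotinylated degenerate peptide sub-libraries, each fixing one residue at one position around a central Ser/Thr, using 50 μM peptide and 50 μM ATP spiked with γ-32P-ATP for 90 min. Spots captured on streptavidin membranes were phosphorimaged and quantified by densitometry.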

Sequence of RIPK2, construct: aa2-317 (O43353 2-317, looked up): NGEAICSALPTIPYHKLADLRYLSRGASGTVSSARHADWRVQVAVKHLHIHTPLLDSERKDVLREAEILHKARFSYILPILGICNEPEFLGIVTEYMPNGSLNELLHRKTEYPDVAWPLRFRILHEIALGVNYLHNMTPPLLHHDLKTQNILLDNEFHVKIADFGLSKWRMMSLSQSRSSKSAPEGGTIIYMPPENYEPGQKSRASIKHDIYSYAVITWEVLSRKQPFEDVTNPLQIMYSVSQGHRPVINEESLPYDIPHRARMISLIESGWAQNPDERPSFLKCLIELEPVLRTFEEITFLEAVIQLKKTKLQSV
Sequence of PRKACG, construct: Full length (P22612 whole entry, looked up): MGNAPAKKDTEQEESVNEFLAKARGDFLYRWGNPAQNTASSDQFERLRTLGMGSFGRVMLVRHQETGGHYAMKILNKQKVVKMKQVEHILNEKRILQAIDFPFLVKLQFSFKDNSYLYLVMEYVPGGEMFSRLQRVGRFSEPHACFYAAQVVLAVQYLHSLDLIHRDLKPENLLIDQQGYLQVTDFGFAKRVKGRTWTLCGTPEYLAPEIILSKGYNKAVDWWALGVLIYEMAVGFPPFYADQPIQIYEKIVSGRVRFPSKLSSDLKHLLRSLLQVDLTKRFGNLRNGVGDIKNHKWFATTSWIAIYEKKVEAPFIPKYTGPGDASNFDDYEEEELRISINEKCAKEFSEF
Sequence of PLK4, construct: aa1-836 (O00444 1-836, looked up): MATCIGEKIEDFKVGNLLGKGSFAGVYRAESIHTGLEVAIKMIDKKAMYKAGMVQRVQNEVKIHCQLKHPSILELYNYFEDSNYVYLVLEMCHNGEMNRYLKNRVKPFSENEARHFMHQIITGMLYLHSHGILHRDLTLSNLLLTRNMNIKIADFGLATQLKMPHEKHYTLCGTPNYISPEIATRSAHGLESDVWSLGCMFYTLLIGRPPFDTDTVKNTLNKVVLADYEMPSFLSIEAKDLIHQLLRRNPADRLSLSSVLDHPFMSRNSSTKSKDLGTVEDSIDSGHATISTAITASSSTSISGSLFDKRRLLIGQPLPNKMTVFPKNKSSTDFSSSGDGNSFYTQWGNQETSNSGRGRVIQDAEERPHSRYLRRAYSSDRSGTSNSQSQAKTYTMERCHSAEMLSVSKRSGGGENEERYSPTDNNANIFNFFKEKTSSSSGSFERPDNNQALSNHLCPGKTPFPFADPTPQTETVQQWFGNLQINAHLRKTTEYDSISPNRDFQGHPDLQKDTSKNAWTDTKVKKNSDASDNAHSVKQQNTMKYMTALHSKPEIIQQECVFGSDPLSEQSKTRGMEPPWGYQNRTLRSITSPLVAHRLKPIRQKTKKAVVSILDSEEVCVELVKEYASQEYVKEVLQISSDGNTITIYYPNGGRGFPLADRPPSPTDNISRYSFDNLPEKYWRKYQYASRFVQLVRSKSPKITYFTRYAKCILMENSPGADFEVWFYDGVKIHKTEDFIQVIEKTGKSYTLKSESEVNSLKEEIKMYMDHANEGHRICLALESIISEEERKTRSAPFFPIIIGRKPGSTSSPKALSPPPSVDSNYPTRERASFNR

PLK4, construct: aa1-836 (from UniProt O00444)
relative phosphorylation
Conditions | at +1 | at +2 | at +3 | at +4 | at -1 | at -2 | at -3 | at -4 | at -5
A fixed | 0.459 | 0.471 | 0.813 | 1.24 | 0.953 | 0.708 | 1.03 | 1.24 | 1.26
D fixed | 0.141 | 0.195 | 0.641 | 0.629 | 0.452 | 2.77 | 0.913 | 1.08 | 0.912
E fixed | 0.135 | 0.148 | 0.874 | 0.705 | 0.493 | 1.26 | 0.791 | 0.991 | 0.918
F fixed | 3.31 | 2.2 | 1.18 | 0.861 | 0.621 | 0.829 | 0.569 | 0.691 | 0.873
G fixed | 0.61 | 0.24 | 0.821 | 1.4 | 2.08 | 1.35 | 1.25 | 1.42 | 1.43
H fixed | 0.675 | 1.6 | 1.03 | 1.09 | 0.988 | 1.15 | 0.848 | 1.14 | 1.21
I fixed | 1.67 | 1.39 | 1.4 | 1.01 | 0.347 | 0.395 | 0.478 | 0.625 | 0.582
K fixed | 0.413 | 0.219 | 0.704 | 1.05 | 2.14 | 0.712 | 1.07 | 1.04 | 1.28
L fixed | 1.62 | 1.35 | 1.33 | 1.01 | 0.858 | 0.398 | 0.715 | 0.748 | 0.771
M fixed | 2.44 | 0.906 | 1.2 | 1.05 | 1.33 | 0.676 | 0.867 | 0.893 | 0.728
N fixed | 0.409 | 0.294 | 0.58 | 0.829 | 1.09 | 2.41 | 1.97 | 1.54 | 1.28
P fixed | 0.168 | 0.141 | 0.381 | 1.55 | 0.331 | 0.486 | 1.98 | 1.25 | 0.926
Q fixed | 0.58 | 0.252 | 0.785 | 1.01 | 1.27 | 0.778 | 0.96 | 0.956 | 0.825
R fixed | 0.44 | 0.216 | 0.609 | 0.711 | 1.85 | 0.75 | 1.14 | 0.944 | 1.07
V fixed | 1.08 | 1.12 | 1.36 | 0.969 | 0.571 | 0.44 | 1.08 | 0.776 | 0.87
W fixed | 1.47 | 2.81 | 1.84 | 0.991 | 0.672 | 1 | 0.717 | 0.917 | 1.21
Y fixed | 1.38 | 3.44 | 1.44 | 0.889 | 0.955 | 0.881 | 0.627 | 0.746 | 0.848
pThr fixed | 0.54 | 0.446 | 0.572 | 0.592 | 0.571 | 0.796 | 1.08 | 0.931 | 0.889
pTyr fixed | 0.526 | 1.37 | 0.734 | 0.52 | 1.06 | 0.753 | 0.841 | 0.86 | 0.806

PRKACG, construct: Full length (from UniProt P22612)
relative phosphorylation
Conditions | at +1 | at +2 | at +3 | at +4 | at -1 | at -2 | at -3 | at -4 | at -5
A fixed | 0.696 | 1.22 | 0.896 | 0.974 | 0.795 | 0.472 | 0.682 | 0.944 | 1.09
D fixed | 0.44 | 0.969 | 0.917 | 0.885 | 0.473 | 0.197 | 0.322 | 0.595 | 0.569
E fixed | 0.469 | 0.676 | 0.951 | 0.985 | 0.452 | 0.215 | 0.344 | 0.665 | 0.577
F fixed | 1.58 | 1.13 | 1.06 | 0.761 | 0.709 | 0.578 | 0.441 | 0.653 | 0.754
G fixed | 0.804 | 1.08 | 1.26 | 1.17 | 1.21 | 0.565 | 0.846 | 1.09 | 1.09
H fixed | 1.05 | 1.45 | 1.39 | 1.14 | 1.11 | 1.08 | 1.35 | 1.3 | 1.42
I fixed | 1.57 | 0.902 | 0.819 | 1.16 | 0.343 | 0.227 | 0.289 | 0.564 | 0.63
K fixed | 1.08 | 0.812 | 1.08 | 0.978 | 2.41 | 4.09 | 2.19 | 1.85 | 1.97
L fixed | 1.32 | 0.961 | 0.87 | 0.866 | 0.746 | 0.324 | 0.297 | 0.582 | 0.627
M fixed | 1.51 | 0.926 | 0.805 | 0.879 | 0.959 | 0.414 | 0.49 | 0.873 | 0.713
N fixed | 0.851 | 0.942 | 0.921 | 1.04 | 1.15 | 0.689 | 0.776 | 1.01 | 0.965
P fixed | 0.295 | 0.941 | 1.05 | 1.28 | 1.16 | 0.445 | 1.03 | 1.06 | 0.86
Q fixed | 1.05 | 0.975 | 0.913 | 0.937 | 1.1 | 0.532 | 0.789 | 1.04 | 0.91
R fixed | 1.18 | 0.87 | 1.11 | 0.886 | 1.97 | 6.02 | 5.51 | 2.44 | 2.36
V fixed | 1.18 | 1.02 | 0.871 | 0.991 | 0.563 | 0.217 | 0.315 | 0.678 | 0.777
W fixed | 0.963 | 0.99 | 1.04 | 1.1 | 0.768 | 0.462 | 0.615 | 0.821 | 0.856
Y fixed | 0.969 | 1.14 | 1.05 | 0.979 | 1.09 | 0.478 | 0.716 | 0.847 | 0.824
pThr fixed | 0.817 | 0.71 | 0.919 | 1.52 | 0.455 | 0.542 | 0.792 | 0.954 | 0.769
pTyr fixed | 0.939 | 1.03 | 1.26 | 1.29 | 0.59 | 0.455 | 0.614 | 0.655 | 0.751

RAF1, construct: aa306-648 (from UniProt P04049)
relative phosphorylation
Conditions | at +1 | at +2 | at +3 | at +4 | at -1 | at -2 | at -3 | at -4 | at -5
A fixed | 0.533 | 0.747 | 0.856 | 0.786 | 1.02 | 0.816 | 0.961 | 0.949 | 1.05
D fixed | 0.619 | 0.926 | 0.751 | 0.848 | 1.47 | 0.702 | 0.845 | 1.36 | 1.19
E fixed | 0.992 | 0.886 | 0.697 | 0.864 | 0.969 | 0.718 | 0.898 | 1.24 | 1.29
F fixed | 1.25 | 0.618 | 1.36 | 1.23 | 0.587 | 1.25 | 0.8 | 0.698 | 0.914
G fixed | 0.719 | 1.13 | 1.05 | 0.823 | 1.07 | 0.675 | 1.06 | 1.09 | 0.997
H fixed | 0.672 | 1.08 | 1.06 | 1.13 | 1.52 | 1.29 | 1.08 | 1.13 | 1.18
I fixed | 1.66 | 1.03 | 0.787 | 0.958 | 0.647 | 1.27 | 0.755 | 0.65 | 0.731
K fixed | 0.544 | 1.15 | 0.73 | 0.985 | 1.14 | 0.9 | 1.36 | 1.11 | 1.35
L fixed | 2.37 | 1 | 1.19 | 1.05 | 0.852 | 0.939 | 1.22 | 0.793 | 0.848
M fixed | 1.78 | 0.846 | 0.963 | 0.966 | 1.09 | 1.02 | 1.07 | 0.835 | 0.788
N fixed | 0.692 | 1.32 | 0.999 | 1.08 | 1.29 | 0.784 | 0.832 | 1.27 | 1.13
P fixed | 0.281 | 1.23 | 0.912 | 0.983 | 0.735 | 1.1 | 0.797 | 0.772 | 1.03
Q fixed | 0.762 | 1.22 | 0.892 | 1.06 | 0.93 | 0.846 | 0.996 | 0.878 | 0.86
R fixed | 0.667 | 1.49 | 0.776 | 0.944 | 1.39 | 1.37 | 1.83 | 0.911 | 1.09
V fixed | 0.938 | 1.12 | 0.81 | 0.793 | 0.59 | 1.14 | 0.661 | 0.616 | 0.681
W fixed | 1.44 | 0.58 | 1.61 | 1.3 | 0.805 | 0.932 | 0.94 | 1.91 | 1.02
Y fixed | 1.08 | 0.631 | 1.56 | 1.19 | 0.891 | 1.26 | 0.89 | 0.791 | 0.855
pThr fixed | 1.05 | 1.62 | 0.758 | 0.819 | 0.77 | 1.06 | 1.1 | 1.24 | 0.992
pTyr fixed | 0.626 | 0.898 | 0.911 | 0.692 | 1.61 | 1.72 | 1.07 | 0.994 | 0.98

RIPK2, construct: aa2-317 (from UniProt O43353)
relative phosphorylation
Conditions | at +1 | at +2 | at +3 | at +4 | at -1 | at -2 | at -3 | at -4 | at -5
A fixed | 0.347 | 0.349 | 0.463 | 0.669 | 0.597 | 0.592 | 0.889 | 0.727 | 1.01
D fixed | 0.267 | 0.348 | 0.308 | 0.731 | 1.09 | 0.599 | 0.412 | 0.738 | 0.674
E fixed | 0.265 | 0.481 | 0.291 | 0.563 | 0.726 | 0.431 | 0.409 | 0.655 | 0.669
F fixed | 2.32 | 1.73 | 3.03 | 1.2 | 1.31 | 1.12 | 1.17 | 1.15 | 1.44
G fixed | 0.316 | 0.414 | 0.503 | 0.789 | 0.615 | 0.882 | 0.712 | 0.728 | 0.893
H fixed | 0.643 | 1.41 | 0.734 | 1.11 | 1.29 | 1.54 | 0.905 | 1.02 | 0.985
I fixed | 2.75 | 1.96 | 1.31 | 0.975 | 1.11 | 0.86 | 1.27 | 1.12 | 1.13
K fixed | 0.367 | 1.29 | 0.628 | 1.18 | 0.766 | 0.734 | 0.983 | 0.739 | 0.874
L fixed | 1.41 | 1.17 | 1.12 | 0.98 | 1.53 | 1.15 | 1.6 | 1.1 | 1.15
M fixed | 1.4 | 1.12 | 1.41 | 0.967 | 1.74 | 1.18 | 1.2 | 1.23 | 1.17
N fixed | 0.369 | 0.622 | 0.498 | 0.86 | 0.932 | 0.869 | 0.626 | 0.949 | 0.73
P fixed | 0.166 | 0.299 | 0.277 | 0.879 | 0.394 | 0.365 | 0.537 | 0.624 | 0.781
Q fixed | 0.496 | 0.788 | 0.425 | 0.847 | 0.784 | 0.82 | 0.631 | 0.679 | 0.727
R fixed | 0.395 | 1.22 | 0.962 | 1.43 | 0.8 | 1.72 | 2.02 | 0.923 | 1.01
V fixed | 1.58 | 1.14 | 0.845 | 0.638 | 0.75 | 0.64 | 0.797 | 1.02 | 0.917
W fixed | 2.7 | 1.01 | 2.38 | 1.83 | 1.32 | 2.07 | 1.78 | 2.25 | 1.42
Y fixed | 1.22 | 1.65 | 1.81 | 1.34 | 1.24 | 1.42 | 1.05 | 1.35 | 1.42
pThr fixed | 0.578 | 0.83 | 0.416 | 0.82 | 0.77 | 0.688 | 0.707 | 1 | 0.808
pTyr fixed | 0.309 | 0.39 | 0.353 | 0.5 | 1.35 | 0.425 | 0.568 | 0.617 | 0.54
